Results published in paper PMC2818874.

Target: Cytosolic His-tag version of human IRE1α (IRE1ΔN-HIS) (human)

Substance: Cytosolic His-tag version of human IRE1α (IRE1ΔN-HIS) (domain or fragment)
- stoichiometry N: 2
